Laboratory results as given in PMC7572793 (Immunity, 2020).
Positions count from the first letter of the chain named.

Columns and labels:
Assay in all cases: ELISA
[1] = molecular target: T1, peptide 29 (Plasmodium falciparum 3D7)
T1 chain: NANPNANPNANPNAN

[2] = molecular target: T2, (NANP)3 (Plasmodium falciparum)
T2 chain: NANPNANPNANP

[3] = molecular target: T3, (NANP)5 (Plasmodium falciparum)
T3 chain: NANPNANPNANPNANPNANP

[4] = molecular target: T4, (NANP)6 (Plasmodium falciparum)
T4 chain: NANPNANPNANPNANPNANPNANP

[5] = molecular target: T5, (NANP)7 (Plasmodium falciparum)
T5 chain: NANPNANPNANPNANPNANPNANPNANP

[6] = molecular target: T6, (NANP)8 (Plasmodium falciparum)
T6 chain: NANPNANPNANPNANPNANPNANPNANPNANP

[7] = molecular target: T7, (NANP)9 (Plasmodium falciparum)
T7 chain: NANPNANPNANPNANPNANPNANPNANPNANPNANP

Measured: binding result

B1: MGU12 (antibody, V domains shown)
VH: QVQLVESGGGVVQPGRSLRLSCAASGFSFSSYGMHWVRQAPGKGPEWVAVIWHDGSYSYYADSVRGRFTISRDNSKNTLYLQMNSLRPEDTGMYHCVKVEDYVRGSSHGGAFHIWGQGTMVTVSS
VL: DIQMTQSPSTLSASVGDRVTITCRASQTINNWLAWYQWKPGKAPELLIYKASSLESGVPSRFSGSGSGTEFTLTISSLQPDDFATYYCQQYSSYWTFGQGTKVDIK
binds: [1] | [2] | [3] | [4] | [5] | [6] | [7]

B2: 1210 (antibody, V domains shown)
VH: QVQLVESGGGVVQPGRSLRLSCAASGFTFSNYGMHWVRQAPGKGLEWVAVIWYDGSKKYYADSVKGRFTISRDNSKNTLYLQMNSLRAEDTAVYYCARVRDSSDYYGDAFDIWGQGTMVTVSS
VL: B1 VL with T28S, N30S, N31S, W38Q, E45K, S53N, S60L, S92N, S93N, D104E
binds: [1] | [4] | [5] | [6] | [7]

B3: CIS43 (antibody, V domains shown)
VH: QVQLVQSGAEVKKPGASVKVSCKASGYTFTSYAIHWVRQAPGQRLEWMGWIKAGNGNTRYSQKFQDRVTITRDTSTTTAYMELSSLRSEDTAVYYCALLTVLTPDDAFDIWGQGTMVTVSS
VL: not shown
binds: [7]

B4: 311 (antibody, V domains shown)
VH: QVQLVESGGGVVPPGRSLRLSCATSGFTFSNYGMHWVRQAPGKGLEWVAIIWYDGSRNFYAASVEGRFTISRDNSKNTLYLQMNSLRVEDTAVYYCARAAYYDTSGYGDYWGQGTLVTVSS
VL: QSVLTQPPSVSGAPGQTVTISCTGGSSNIGAGYDVHWYQQLPGTAPKLLIYGNINRPSGVPDRFSGSKSGTSASLAITGLQAEDEADYYCQSYDRRLSGSWVFGGGTKLTVL
binds: [1] | [2] | [3] | [4] | [5] | [6] | [7]

B5: 317 (antibody, V domains shown)
VH: QMQLVESGGGVVQPGRSLRLSCTASGFTFSTYAMHWVRQSPGQGLQWVAVISYHSTNKYYEDSVRGRFTISRDNSKNTLYLQMNSLRAEDTAVYYCARDGYSSSFFDFWGQGTLVTVSS
VL: DIQMTQSPSTLSASVGDRVAITCRASQSISRWLAWYQQQPGKAPKLLMSGASVLESGVPSRFSGSGSGTEFTLTISSLQPDDFATYYCQHYNSYFVTFGQGTKVEIK
binds: [1] | [2] | [3] | [5] | [6] | [7]
